Where a chain is given by its changes, count along the chain named. In names and notes the source's numbering stands. Several values for one entry are separate records, joined by “and”; a condition that tells them apart may be missing. Identical values can stand only once.
T1: recombinant human FGF23 (R179Q) (human, UniProt Q9GZV9 25-251)
T1 construct: also called rhFGF23(R179Q); hFGF23(R179Q)
T1 sequence (looked up): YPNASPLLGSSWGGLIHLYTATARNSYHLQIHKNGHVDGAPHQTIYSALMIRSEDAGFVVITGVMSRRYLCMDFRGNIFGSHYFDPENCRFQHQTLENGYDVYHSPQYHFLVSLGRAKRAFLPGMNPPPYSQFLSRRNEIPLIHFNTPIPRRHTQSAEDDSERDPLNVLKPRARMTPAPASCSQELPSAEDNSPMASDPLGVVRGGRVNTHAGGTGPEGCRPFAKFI

B1: UGX117 (antibody, human IgG1, kappa, V domains shown)
VH: QVQLVQSGAEVKKPGASVKVSCKASGYTFTNHYMHWVRQAPGQGLEWMGIINPISGSTSNAQKFQGRVTMTRDTSTSTVYMELSSLRSEDTAVYYCARDIVDAFDFWGQGTMVTVSS
VL: AIQLTQSPSSLSASVGDRVTITCRASQGISSALIWYQQKPGKAPKLLIYDASSLESGVPSRFSGSGSGTDFTLTISSLQPEDFATYYCQQFNDYFTFGPGTKVDIKR
notes: also called LC:V34I
B2: UGX127 (antibody, human IgG1, kappa, V domains shown)
VH: B1 VH
VL: B1 VL with I34V, S52E
notes: also called UGX017; LC:S52E
B3: UGX148 (antibody, human IgG1, kappa, V domains shown)
VH: B1 VH with T30F
VL: B1 VL with I34V
notes: also called HC:T30F
B4: UGX152 (antibody, human IgG1, kappa, V domains shown)
VH: B1 VH with N31Q
VL: B1 VL with I34V
notes: also called HC:N31Q
B5: UGX135 (antibody, human IgG1, kappa, V domains shown)
VH: B1 VH
VL: B1 VL with I34V, N92D
notes: also called LC:N92D
B6: UGX137 (antibody, human IgG1, kappa, V domains shown)
VH: B1 VH
VL: B1 VL with I34V, N92F
notes: also called UGX035; LC:N92F
B7: UGX140 (antibody, human IgG1, kappa, V domains shown)
VH: B1 VH
VL: B1 VL with I34V, D93F
notes: also called UGX039; LC:D93F
B8: UGX146 (antibody, human IgG1, kappa, V domains shown)
VH: B1 VH
VL: B1 VL with I34V, Y94F
notes: also called LC:Y94F
B9: UGX133 (antibody, human IgG1, kappa, V domains shown)
VH: B1 VH
VL: B1 VL with I34V, S53Y
notes: also called UGX022; LC:S53Y
B10: UGX151 (antibody, human IgG1, kappa, V domains shown)
VH: B1 VH with N31F
VL: B1 VL with I34V
notes: also called HC:N31F
B11: UGX131 (antibody, human IgG1, kappa, V domains shown)
VH: B1 VH
VL: B1 VL with I34V, S53F
notes: also called LC:S53F
B12: UGX130 (antibody, human IgG1, kappa, V domains shown)
VH: B1 VH
VL: B1 VL with I34V, S53E
notes: also called LC:S53E

What follows are binders tested against T1, recombinant human FGF23 (R179Q) (assay: SPR, antibody captured on hIgG chip, rhFGF23(R179Q) analyte).

| Binder | Kd | Ratio (variant antibody KD/burosumab KD) | koff | kon | SA (surface activity) |
| --- | --- | --- | --- | --- | --- |
| B1 | 0.0504 nM and 0.0703 nM | 0 | 0.000169 s⁻¹ and 0.000204 s⁻¹ | 3.35e+06 M⁻¹ s⁻¹ and 2.9e+06 M⁻¹ s⁻¹ |  |
| B2 | 0.0176 nM | 1 | 0.000122 s⁻¹ | 6.93e+06 M⁻¹ s⁻¹ | 85% |
| B3 | 0.0272 nM | 1 | 0.000181 s⁻¹ | 6.65e+06 M⁻¹ s⁻¹ | 91.2% |
| B4 | 0.0416 nM | 0 | 0.000262 s⁻¹ | 6.29e+06 M⁻¹ s⁻¹ | 91.2% |
| B5 | 0.0235 nM | 1 | 0.000181 s⁻¹ | 7.71e+06 M⁻¹ s⁻¹ | 100% |
| B6 | 0.0319 nM | 1 | 0.000161 s⁻¹ | 5.04e+06 M⁻¹ s⁻¹ | 86.5% |
| B7 |  |  |  | 2.63e+06 M⁻¹ s⁻¹ and 2.27e+06 M⁻¹ s⁻¹ |  |
| B8 | 0.0332 nM | 1 | 0.00017 s⁻¹ | 5.14e+06 M⁻¹ s⁻¹ | 89.9% |
| B9 | 0.202 nM | 0 | 0.000733 s⁻¹ | 3.63e+06 M⁻¹ s⁻¹ | 84.8% |
| B10 | 0.0255 nM | 1 | 0.000212 s⁻¹ | 8.32e+06 M⁻¹ s⁻¹ | 90.3% |
| B11 | 0.0393 nM | 1 | 0.000266 s⁻¹ | 6.78e+06 M⁻¹ s⁻¹ | 95.7% |
| B12 | 0.0348 nM | 1 | 0.000358 s⁻¹ | 1.03e+07 M⁻¹ s⁻¹ | 88.4% |
